Test results from the Immune Epitope Database (IEDB).

Tests used:
Settings in all cases: source organism: Vaccinia virus WR
HLA-A*68:01 = assay: IEDB peptide-MHC binding, purified MHC/competitive/radioactivity; filed as Kd, often an IC50 or EC50 that approximates it; ≥ and ≤ were set here for values at or beyond the usual limits of such assays
HLA-A*33:01 = assay: as above
HLA-A*11:01 [1] = assay: as above
HLA-A*31:01 = assay: as above
HLA-A*03:01 [2] = assay: IEDB peptide-MHC binding, purified MHC/competitive/radioactivity; ≥ and ≤ were set here for values at or beyond the usual limits of such assays
HLA-A*03:01 [3] = assay: IEDB peptide-MHC binding, purified MHC/competitive/radioactivity; filed as Kd, often an IC50 or EC50 that approximates it; ≥ and ≤ were set here for values at or beyond the usual limits of such assays
HLA-A*11:01 [4] = assay: IEDB peptide-MHC binding, purified MHC/competitive/radioactivity; ≥ and ≤ were set here for values at or beyond the usual limits of such assays
HLA-A*02:06 = assay: IEDB peptide-MHC binding, purified MHC/competitive/radioactivity; filed as Kd, often an IC50 or EC50 that approximates it; ≥ and ≤ were set here for values at or beyond the usual limits of such assays
HLA-A*02:01 = assay: IEDB peptide-MHC binding, purified MHC/competitive/radioactivity; ≥ and ≤ were set here for values at or beyond the usual limits of such assays

AVKDVTITKK
Kd (HLA-A*68:01): 1.62 µM
Kd (HLA-A*33:01): ≥ 50 µM
Kd (HLA-A*11:01 [1]): 0.519 µM
Kd (HLA-A*31:01): 0.605 µM
IC50 (HLA-A*03:01 [2]): 0.084 µM

ATSLDVINY
Kd (HLA-A*68:01): ≥ 50 µM
Kd (HLA-A*03:01 [3]): 0.625 µM
Kd (HLA-A*33:01): ≥ 50 µM
Kd (HLA-A*31:01): 10.3 µM
IC50 (HLA-A*11:01 [4]): 0.0068 µM

FLVIAINAM
Kd (HLA-A*02:06): 0.93 µM
IC50 (HLA-A*02:01): 0.435 µM
